Molecular target: the molecule itself
Test: transmission electron microscopy

B1: encapsulin from Thermotoga maritima (TmEnc) nanocage (natural protein)
chain: MEFLKRSFAPLTEKQWQEIDNRAREIFKTQLYGRKFVDVEGPYGWEYAAHPLGEVEVLSDENEVVKWGLRKSLPLIELRATFTLDLWELDNLERGKPNVDLSSLEETVRKVAEFEDEVIFRGCEKSGVKGLLSFEERKIECGSTPKDLLEAIVRALSIFSKDGIEGPYTLVINTDRWINFLKEEAGHYPLEKRVEECLRGGKIITTPRIEDALVVSERGGDFKLILGQDLSIGYEDREKDAVRLFITETFTFQVVNPEALILLKF
  binding result: binds

B2: Cy7-labelled TmEnc (TmEnc^Cy7) nanocage (natural protein, Thermotoga maritima)
chain: MEFLKRSFAPLTEKQWQEIDNRAREIFKTQLYGRKFVDVEGPYGWEYAAHPLGEVEVLSDENEVVKWGLRKSLPLIELRATFTLDLWELDNLERGKPNVDLSSLEETVRKVAEFEDEVIFRGCEKSGVKGLLSFEERKIECGSTPKDLLEAIVRALSIFSKDGIEGPYTLVINTDRWINFLKEEAGHYPLEKRVEECLRGGKIITTPRIEDALVVSERGGDFKLILGQDLSIGYEDREKDAVRLFITETFTFQVVNPEALILLKF
modifications: sulfo-Cy7 conjugated to lysine residues on the outer surface (~50 dye molecules per nanocage)
  binding result: binds

Source: publication doi:10.1101/2023.07.16.549228 (bioRxiv, 2023)
